In data set [1] the test system is L(+)-biotinyl-aminohexanoyl-Glu-Ser-Ile-Asp-Asp-Tyr-Val-Asn-Val-Pro-Glu-Gly-OH (SEQ ID NO:13).
Data set [2] relates to compounds of SEQ ID NO:12; SEQ ID NO: 13; or SEQ ID NO: 14.
In data set [3] the test system is L(+)-biotinyl-aminohexanoyl-Glu-Asp-Glu-Asp-Asp-Tyr-His-Asn-Pro-Gly-Gly-OH (SEQ ID NO:14).
Data set [4] deals with L(+)-biotinyl-aminohexanoyl-Glu-Glu-Gly-Ala-Pro-Asp-Tyr-Glu-Asn-Leu-Gln-Glu-Leu-Asn (SEQ ID NO:12).

“recombinant full-length human Syk (p72syk protein tyrosine kinase)”: the “phosphorylation of the peptide by the kinase, time resolved fluorescence resonance energy transfer” value in data set [1], in data set [3] and in data set [4] was “are phosphorylated by Syk” throughout. For the same substance, the “fluorescence units (TR-FRET phosphorylation assay, 370 nM peptide, 10 nM Syk, 20 µM ATP)” value in data set [2] was 20,000 to 30,000 fluorescence units.

The values above are taken from patent US20100168031.
